The numbers were not newly measured in publication PMC4459106, which cites them from elsewhere.

The target of this data set is KIM15-31 (HePTP) 15-31 (Homo sapiens) (UniProt P35236).

Turning to ppERK2 (from UniProt P63086), the Kd was 1300 nM.
